Changes are numbered by the printed parent chain. Each block holds one molecule with its values, some of them ahead of it.
Key:
[1] = target: T1, human CD73 expressed at the cell surface (human, UniProt P21589 27-549); test: cell-based or functional assay
T1 sequence: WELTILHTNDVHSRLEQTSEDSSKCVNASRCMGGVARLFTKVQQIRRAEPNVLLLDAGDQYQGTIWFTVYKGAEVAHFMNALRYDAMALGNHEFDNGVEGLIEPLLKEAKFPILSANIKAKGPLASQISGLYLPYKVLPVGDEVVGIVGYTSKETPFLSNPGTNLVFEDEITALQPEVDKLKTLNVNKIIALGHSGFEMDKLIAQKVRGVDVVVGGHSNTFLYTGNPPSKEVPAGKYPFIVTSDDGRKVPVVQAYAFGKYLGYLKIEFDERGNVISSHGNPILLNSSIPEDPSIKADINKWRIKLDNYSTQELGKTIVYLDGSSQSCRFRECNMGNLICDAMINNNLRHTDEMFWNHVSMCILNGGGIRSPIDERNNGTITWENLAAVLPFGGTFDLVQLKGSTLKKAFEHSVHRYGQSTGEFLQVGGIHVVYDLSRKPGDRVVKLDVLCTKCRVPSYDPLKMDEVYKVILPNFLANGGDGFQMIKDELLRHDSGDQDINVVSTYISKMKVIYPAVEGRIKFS

[2] = target: recombinant human CD73-His extracellular domain recombinant protein (soluble dimer) (human) (UniProt P21589); test: ELISA, recombinant human CD73 coated at 5 µg/ml, antibody titrated
[3] = target: T1, human CD73 expressed at the cell surface; test: cell-based or functional assay; remark: listed apart in the source
[4] = target: T2, recombinant human CD73-His extracellular domain recombinant protein (soluble dimer) (human, UniProt P21589 27-547, limits assumed); test: cell-based or functional assay
T2 sequence: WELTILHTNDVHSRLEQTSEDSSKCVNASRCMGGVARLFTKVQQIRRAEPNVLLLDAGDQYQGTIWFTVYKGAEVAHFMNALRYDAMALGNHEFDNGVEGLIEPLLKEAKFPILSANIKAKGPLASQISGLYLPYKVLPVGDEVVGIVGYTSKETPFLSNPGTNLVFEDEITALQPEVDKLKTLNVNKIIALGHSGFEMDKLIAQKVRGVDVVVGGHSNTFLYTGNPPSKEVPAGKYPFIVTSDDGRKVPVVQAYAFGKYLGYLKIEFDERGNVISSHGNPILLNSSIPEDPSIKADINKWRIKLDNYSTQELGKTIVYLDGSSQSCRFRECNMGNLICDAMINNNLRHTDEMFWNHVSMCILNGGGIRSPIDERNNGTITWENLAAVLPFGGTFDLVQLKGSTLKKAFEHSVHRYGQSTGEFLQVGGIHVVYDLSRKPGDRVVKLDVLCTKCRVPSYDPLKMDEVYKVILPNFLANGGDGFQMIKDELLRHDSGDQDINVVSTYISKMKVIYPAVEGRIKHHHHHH

[5] = target: T1, human CD73 expressed at the cell surface; test: cell-based or functional assay; remark: listed apart in the source
[6] = target: T1, human CD73 expressed at the cell surface; test: cell-based or functional assay; remark: listed apart in the source

down-modulation of CD73 expression on MDA-MB-231 cells (10 µg/ml antibody, time course) [1]: > 50%
EC50 [2]: 0.037 µg/mL
Molecule: antibody 7G2 (Life Technologies Corp.)

EC50 for neutralization of cellular CD73 enzymatic activity, mean over MDA-MB-231, H292 and A375 cells (N=8) [3]: 0.14 µg/mL
EC70 for neutralization of cellular CD73 enzymatic activity, mean over MDA-MB-231, H292 and A375 cells (N=8) [3]: 0.18 µg/mL
EC100 for neutralization of cellular CD73 enzymatic activity, mean over MDA-MB-231, H292 and A375 cells (N=8) [3]: 0.3 µg/mL
EC50 for CD73 blockade (enzymatic activity of soluble recombinant human CD73-his, Cell Titer Glo luciferase read-out) [4]: 0.41 µg/mL
decrease of enzymatic activity of cellular CD73 (MDA-MB-231) [5]: > 75%
EC50 for neutralization of enzymatic activity of cellular CD73 (MDA-MB-231 cells, free phosphate from AMP hydrolysis, Malachite Green) [6]: 0.21 µg/mL
B4: antibody 3C12 (antibody, V domains shown)
VH: QIQLQQSGPELVKPGASVKVSCKASGYAFASYNMNWVKQSHGKSLDWIGYIDPYNGGSSYNLTFKGKATLTVDKSSTTAYMHLNSLTSEDSAVYYCARGYGNYKAWFAYWGQGTLVTVSA
VL: DVVMTQTPKFLLVSAGDRVTITCKASQSVSNDVAWYQQKPGQSPKLLIYYASTRYTGVPDRFTGSGYGTDFTFTISTVQAEDLAVYFCQQDYSSLTFGAGTKLELKR

Second part, the molecule before the results:

B1: antibody 11E1 (antibody, V domains shown)
VH: B4 VH with Q1E, A30T, N35Y, D46E, S58T, L62Q, T63K, T77S
VL: DAVMTQTPKFLLVSAGDRVTITCKASQSVTNDVAWYQQKPGQSPKLLIYYASNRYTGVPDRFTGSGYGTDFTFTISTVQAEDLAVYFCQQDYSSLTFGAGTKLELK
EC50 for neutralization of cellular CD73 enzymatic activity, mean over MDA-MB-231, H292 and A375 cells (N=8) [3]: 0.1 µg/mL
EC70 for neutralization of cellular CD73 enzymatic activity, mean over MDA-MB-231, H292 and A375 cells (N=8) [3]: 0.15 µg/mL
EC100 for neutralization of cellular CD73 enzymatic activity, mean over MDA-MB-231, H292 and A375 cells (N=8) [3]: 0.52 µg/mL
EC50 for CD73 blockade (enzymatic activity of soluble recombinant human CD73-his, Cell Titer Glo luciferase read-out) [4]: 0.41 µg/mL
decrease of enzymatic activity of cellular CD73 (MDA-MB-231) [5]: > 75%
EC50 for neutralization of enzymatic activity of cellular CD73 (MDA-MB-231 cells, free phosphate from AMP hydrolysis, Malachite Green) [6]: 0.195 µg/mL

B2: antibody 8C7 (antibody, V domains shown)
VH: B4 VH with Q1E, I2V
VL: B4 VL with D1S, V2I, Q6P
EC50 for neutralization of cellular CD73 enzymatic activity, mean over MDA-MB-231, H292 and A375 cells (N=2) [3]: 0.21 µg/mL
EC50 for CD73 blockade (enzymatic activity of soluble recombinant human CD73-his, Cell Titer Glo luciferase read-out) [4]: 1.29 µg/mL
decrease of enzymatic activity of cellular CD73 (MDA-MB-231) [5]: > 75%
EC50 for neutralization of enzymatic activity of cellular CD73 (MDA-MB-231 cells, free phosphate from AMP hydrolysis, Malachite Green) [6]: 0.319 µg/mL

B3: antibody 6E1 (antibody, V domains shown)
VH: EFQLQQSGPELVKPGASVKVSCKASGYAFTSYNMYWVKQSHGKRLEWIGYIDPYNGGSSYNQKFKGKATLTVDKSSSTAYMHLNNLTSEDSAVYYCARGYNNYKAWFAYWGQGTLVTVSA
VL: B1 VL with D1S, A2I, V78M
EC50 for neutralization of cellular CD73 enzymatic activity, mean over MDA-MB-231, H292 and A375 cells (N=8) [3]: 0.13 µg/mL
EC70 for neutralization of cellular CD73 enzymatic activity, mean over MDA-MB-231, H292 and A375 cells (N=8) [3]: 0.19 µg/mL
EC100 for neutralization of cellular CD73 enzymatic activity, mean over MDA-MB-231, H292 and A375 cells (N=8) [3]: 0.68 µg/mL
EC50 for CD73 blockade (enzymatic activity of soluble recombinant human CD73-his, Cell Titer Glo luciferase read-out) [4]: 0.33 µg/mL
decrease of enzymatic activity of cellular CD73 (MDA-MB-231) [5]: > 75%
EC50 for neutralization of enzymatic activity of cellular CD73 (MDA-MB-231 cells, free phosphate from AMP hydrolysis, Malachite Green) [6]: 0.209 µg/mL
